Assay results: article PMC3769224

Columns and labels:
[1] = target: BRAG2^(Sec7-PH 390–763) (human)
[2] = target: BRAG2^(Sec7-PH 390–811) (human)

Substance | kcat/Km of GDP/GTP exchange in solution (tryptophan fluorescence kinetics, 37°C, 1 µM Arf) (BRAG2^Sec7 (human)) [M⁻¹ s⁻¹] | kcat/Km of GDP/GTP exchange in solution (tryptophan fluorescence kinetics, 37°C, 1 µM Arf) [1] [M⁻¹ s⁻¹] | kcat/Km of GDP/GTP exchange in solution (tryptophan fluorescence kinetics, 37°C, 1 µM Arf) [2] [M⁻¹ s⁻¹]
Δ17Arf1 (from UniProt P84077 18-181) (domain or fragment) | 20000 | 240000 | 250000
Δ13Arf6 (from UniProt P62330 14-175) (domain or fragment) | 10000 | 50000 | 50000
